In patent US11214595B2, “BK channel-modulating peptides and their use” (UNIVERSITY OF SOUTH FLORIDA, priority 2016, dated 2022):
Positions of bridges follow the written chain, without caps; N, C: chain ends. Residues, ends and D or L forms follow the SMILES beside them.

What was measured:
[1] = Blood-brain barrier crossing after application to the dural surface of the auditory midbrain; conditions: mouse, in vivo
Method: The peptide can shuttle both itself and small molecule cargo across the blood-brain barrier of the mammalian brain. […] High dose application supports these peptides' use for suppressing audiogenic seizures, while the lower dose supports these peptides' use for reducing the effects of age-related hearing loss.
When this compound was applied to the dura, fluorescence could be seen at ˜1200 microns in depth after 8 hours.

[2] = target: T1, human BKα channel (ZERO isoform) (Homo sapiens, UniProt Q12791); assay: Patch-clamp recordings of human BKα channels (ZERO isoform) expressed in HEK293 cells, inside-out patches; assay type: cell-based
T1 construct: expressed in transfected cells; host or cells: HEK293
T1 sequence (Q12791 1-1178 isoform Q12791-5): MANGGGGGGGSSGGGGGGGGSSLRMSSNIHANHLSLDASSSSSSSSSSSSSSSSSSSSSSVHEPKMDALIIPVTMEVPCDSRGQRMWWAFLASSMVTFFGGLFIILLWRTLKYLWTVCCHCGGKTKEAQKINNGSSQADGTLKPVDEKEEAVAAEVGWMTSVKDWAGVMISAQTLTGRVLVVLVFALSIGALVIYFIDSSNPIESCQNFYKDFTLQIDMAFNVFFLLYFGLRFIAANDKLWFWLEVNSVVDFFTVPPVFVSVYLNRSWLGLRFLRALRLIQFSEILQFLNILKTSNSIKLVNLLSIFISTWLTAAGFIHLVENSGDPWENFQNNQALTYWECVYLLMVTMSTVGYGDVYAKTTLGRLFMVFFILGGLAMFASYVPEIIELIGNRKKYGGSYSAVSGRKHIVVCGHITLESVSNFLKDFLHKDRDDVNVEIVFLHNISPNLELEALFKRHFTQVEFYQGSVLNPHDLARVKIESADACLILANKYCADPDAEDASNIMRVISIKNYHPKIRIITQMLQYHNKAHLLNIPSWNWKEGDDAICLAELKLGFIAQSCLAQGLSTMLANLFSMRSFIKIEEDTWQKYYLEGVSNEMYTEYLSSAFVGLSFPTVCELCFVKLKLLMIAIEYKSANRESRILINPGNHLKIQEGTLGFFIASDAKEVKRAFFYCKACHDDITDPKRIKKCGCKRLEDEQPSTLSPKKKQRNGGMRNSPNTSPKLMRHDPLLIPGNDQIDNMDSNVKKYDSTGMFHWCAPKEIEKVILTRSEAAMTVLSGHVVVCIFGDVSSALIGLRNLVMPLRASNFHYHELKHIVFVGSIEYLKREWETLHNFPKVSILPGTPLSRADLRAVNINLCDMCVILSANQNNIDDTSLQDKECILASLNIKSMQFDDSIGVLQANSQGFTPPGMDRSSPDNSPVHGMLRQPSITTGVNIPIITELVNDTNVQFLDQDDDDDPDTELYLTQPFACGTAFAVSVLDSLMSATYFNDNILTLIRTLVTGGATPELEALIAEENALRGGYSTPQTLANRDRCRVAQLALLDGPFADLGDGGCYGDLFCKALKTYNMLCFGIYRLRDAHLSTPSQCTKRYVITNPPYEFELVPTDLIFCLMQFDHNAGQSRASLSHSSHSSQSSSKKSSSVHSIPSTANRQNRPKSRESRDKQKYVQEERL
Method: FIGS. 6A-6H. LS3 alters the gating of human BK channels. Human BKα channels (ZERO isoform) expressed in HEK293 cells were recorded in inside-out patches. Peptide was applied by diffusion to the extracellular side. Intracellular calcium held at 750 nM. […] FIGS. 6C-6E, Bar graphs displaying the post-peptide Po relative to the starting Po across LS3 concentrations. […] FIG. 6F-6H, Bar graphs displaying the post-peptide Po relative to the starting Po for either 500 nM LS3 (cyclic) or 500 nM of the reduced form of LS3 (linear).
FIGS. 7A-7C. LS3 alters open and closed dwell times of the human BK channel. Single human BKα channels (ZERO isoform) expressed in HEK293 cells were recorded in inside-out patches. Intracellular calcium held at 750 nM. FIGS. 7A-7C, Bar graphs showing one example of changes in open and closed dwell times before (red) and after (black) 500 nM LS3 (100 mV). Channel open dwell times shortened (FIG. 7A).
FIGS. 11A-11C. The 9-amino acid peptides with an N- and C-terminal disulfide bond express motifs that were highly enriched in a screen for BK channel targeted peptides (FIG. 11A). […] 60 mV shown. N=6-12. Dotted line indicates baseline (FIGS. 11B and 11C).
FIGS. 13A-1, 13A-2, 13B, 13C-1, 13C-2, 13D-1, and 13D-2. […] Single human BKα (ZERO isoform) channels expressed in HEK293 cells were recorded in inside-out patches before and after 500 nM LS10. Intracellular calcium held at 750 nM. FIGS. 13A-1 and 13A-2: open dwell times before (FIG. 13A-1) and after (FIG. 13A-2) LS10 for a representative recording at 100 mV. Single exponential fit, red line. FIG. 13B: the mean change in peak open dwell times in response to LS10. Paired Student's t-tests compared the pre- and post-peptide peak open durations, *p<0.05, N=5-6). FIGS. 13C-1 and 13C-2: closed dwell times before (FIG. 13C-1) and after (FIG. 13C-2) LS10 for a representative recording at 100 mV. […] Three component exponential fits (gray dotted-lines) and summation (red lines) also indicated. FIGS. 13D-1 and 13D-2: the mean change in peak short (FIG. 13D-1) and long (FIG. 13D-2) duration closed dwell times in response to LS10. Paired Student's t-tests compared the pre- and post-peptide peak open durations, *p<0.05, N=6.
(§1) HEK293 cells (ATCC, Manassas, Va.) were grown according to standard procedures. Cells were cultured at 37° C. in a 5% CO2 atmosphere in Dulbecco's modified Eagle's medium with 1-glutamine, sodium pyruvate and 10% fetal bovine serum (Invitrogen). Cell lines were split with trypsin/EDTA in Hanks' balanced salt solution (Invitrogen) up to 25-30 cycles. For phage display, stable lines stably expressed rSK2 or hBKα ZERO isoform. Cells were transfected (Lipofectamine 2000, Invitrogen) with hGlyRα1 and used 48 hours later. For electrophysiological recordings, cells were transfected with the hBKα ZERO or STREX isoform. Enhanced green fluorescent protein (EGFP) was cotransfected as a marker. Electrophysiological recordings were made 16-72 h after transfection. Although the profile of BK channel composition varies from tissue to tissue, the ZERO BK channel splice variant is widely expressed, particularly in the nervous system, serving as a representative form for studying the modulation of BK channel gating.
Voltage-clamp recordings were performed at room temperature (22-24° C.) using an inside-out configuration on patches pulled from HEK293 cells. The extracellular solution contained the following (in mM): 2 KCl, 136 KOH, 20 Hepes, 2 MgCl2, adjusted to pH 7.2 with MeSO3H. In order to apply peptide to the extracellular surface, patch electrodes (7-20 MΩ in resistance) were tip filled with normal extracellular solution and backfilled with extracellular solution containing LS3. Enough normal extracellular solution was included to provide at least five minutes of peptide-free recording (determined by plotting Po vs. time). The intracellular solution (in the bath) contained the following (in mM): 6 KCl, 132 KOH, 20 Hepes, adjusted to pH 7.2 with MeSO3H. […]

smooth muscle = assay: Ex vivo preparations of bladder
[3] = test system: inferior colliculus neurons; conditions: topical 1 μL of 10 μM stock on surface of IC, 5 hours post-application, N=5 mice
[4] = target: T2, human BKα channel (STREX isoform) (Homo sapiens, UniProt Q12791); assay: Patch-clamp recordings of human BKα channels (STREX isoform) expressed in HEK293 cells, inside-out patches; assay type: cell-based; conditions: 500 nM, 100 mV, intracellular calcium 750 nM
T2 construct: expressed in transfected cells; host or cells: HEK293
T2 sequence (Q12791 whole entry, canonical isoform): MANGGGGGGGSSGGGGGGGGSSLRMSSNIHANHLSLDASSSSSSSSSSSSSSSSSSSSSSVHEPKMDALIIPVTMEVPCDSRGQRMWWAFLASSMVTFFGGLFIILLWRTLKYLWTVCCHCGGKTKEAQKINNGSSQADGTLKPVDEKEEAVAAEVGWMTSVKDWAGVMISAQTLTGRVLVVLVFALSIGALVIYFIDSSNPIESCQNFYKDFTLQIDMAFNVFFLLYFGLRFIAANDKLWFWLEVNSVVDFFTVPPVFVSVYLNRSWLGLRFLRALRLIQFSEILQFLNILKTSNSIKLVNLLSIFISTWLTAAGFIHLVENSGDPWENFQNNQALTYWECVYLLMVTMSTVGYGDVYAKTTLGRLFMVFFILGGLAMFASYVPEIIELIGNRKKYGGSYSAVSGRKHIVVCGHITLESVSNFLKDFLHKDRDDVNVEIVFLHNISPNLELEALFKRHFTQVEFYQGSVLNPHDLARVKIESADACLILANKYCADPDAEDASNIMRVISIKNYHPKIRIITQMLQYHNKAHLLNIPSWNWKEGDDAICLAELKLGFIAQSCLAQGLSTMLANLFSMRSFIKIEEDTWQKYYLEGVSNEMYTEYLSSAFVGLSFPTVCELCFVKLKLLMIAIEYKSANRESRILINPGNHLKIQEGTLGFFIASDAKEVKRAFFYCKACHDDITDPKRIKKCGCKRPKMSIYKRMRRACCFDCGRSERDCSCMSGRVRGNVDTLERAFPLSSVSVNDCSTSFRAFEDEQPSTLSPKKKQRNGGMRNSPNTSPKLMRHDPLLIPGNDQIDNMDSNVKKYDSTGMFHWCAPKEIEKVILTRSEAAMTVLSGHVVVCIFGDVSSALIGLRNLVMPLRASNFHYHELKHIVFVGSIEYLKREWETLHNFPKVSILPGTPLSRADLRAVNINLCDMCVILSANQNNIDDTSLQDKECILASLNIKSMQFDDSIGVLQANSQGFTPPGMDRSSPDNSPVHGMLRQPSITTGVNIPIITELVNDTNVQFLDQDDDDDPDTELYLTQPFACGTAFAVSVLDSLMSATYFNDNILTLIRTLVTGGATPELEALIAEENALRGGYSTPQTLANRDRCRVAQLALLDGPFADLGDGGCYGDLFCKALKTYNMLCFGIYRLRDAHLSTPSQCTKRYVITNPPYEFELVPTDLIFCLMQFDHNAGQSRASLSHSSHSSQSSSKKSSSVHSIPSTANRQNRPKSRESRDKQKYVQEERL
Method: (§2) FIGS. 12A, 12B-1, 12B-2, 12C, 12D, and 12E. […] FIGS. 12B-1 and 12B-2: representative three second traces at 100 mV before and after LS10 (500 nM). […] BKα channels expressed in HEK293 cells were recorded in inside-out patches. Intracellular calcium held at 750 nM. […] SLO-1 channels expressed in oocytes cells were recorded in inside-out patches. Intracellular calcium held at 5 μM.
as §1, with “Electrophysiological recordings were made 16-72 h after transfection. Although the profile of BK channel composition varies from tissue to tissue, the ZERO BK channel splice variant is widely expressed, particularly in the nervous system, serving as a representative form for studying the modulation of BK channel gating.” left out
Voltage-clamp recordings were performed at room temperature (22-24° C.) using an inside-out configuration on patches pulled from HEK293 cells. […] Enough normal extracellular solution was included to provide at least five minutes of peptide-free recording (determined by plotting Po vs. time). […]

worm BK channel (SLO-1) = target: T3, worm BK channel (SLO-1) (Caenorhabditis elegans, UniProt Q95V25); assay: Inside-out patch recordings of SLO-1 channels expressed in oocytes; assay type: cell-based, C. elegans; conditions: 100 mV, intracellular calcium 5 μM
T3 construct: expressed in transfected cells
T3 sequence (Q95V25 whole entry): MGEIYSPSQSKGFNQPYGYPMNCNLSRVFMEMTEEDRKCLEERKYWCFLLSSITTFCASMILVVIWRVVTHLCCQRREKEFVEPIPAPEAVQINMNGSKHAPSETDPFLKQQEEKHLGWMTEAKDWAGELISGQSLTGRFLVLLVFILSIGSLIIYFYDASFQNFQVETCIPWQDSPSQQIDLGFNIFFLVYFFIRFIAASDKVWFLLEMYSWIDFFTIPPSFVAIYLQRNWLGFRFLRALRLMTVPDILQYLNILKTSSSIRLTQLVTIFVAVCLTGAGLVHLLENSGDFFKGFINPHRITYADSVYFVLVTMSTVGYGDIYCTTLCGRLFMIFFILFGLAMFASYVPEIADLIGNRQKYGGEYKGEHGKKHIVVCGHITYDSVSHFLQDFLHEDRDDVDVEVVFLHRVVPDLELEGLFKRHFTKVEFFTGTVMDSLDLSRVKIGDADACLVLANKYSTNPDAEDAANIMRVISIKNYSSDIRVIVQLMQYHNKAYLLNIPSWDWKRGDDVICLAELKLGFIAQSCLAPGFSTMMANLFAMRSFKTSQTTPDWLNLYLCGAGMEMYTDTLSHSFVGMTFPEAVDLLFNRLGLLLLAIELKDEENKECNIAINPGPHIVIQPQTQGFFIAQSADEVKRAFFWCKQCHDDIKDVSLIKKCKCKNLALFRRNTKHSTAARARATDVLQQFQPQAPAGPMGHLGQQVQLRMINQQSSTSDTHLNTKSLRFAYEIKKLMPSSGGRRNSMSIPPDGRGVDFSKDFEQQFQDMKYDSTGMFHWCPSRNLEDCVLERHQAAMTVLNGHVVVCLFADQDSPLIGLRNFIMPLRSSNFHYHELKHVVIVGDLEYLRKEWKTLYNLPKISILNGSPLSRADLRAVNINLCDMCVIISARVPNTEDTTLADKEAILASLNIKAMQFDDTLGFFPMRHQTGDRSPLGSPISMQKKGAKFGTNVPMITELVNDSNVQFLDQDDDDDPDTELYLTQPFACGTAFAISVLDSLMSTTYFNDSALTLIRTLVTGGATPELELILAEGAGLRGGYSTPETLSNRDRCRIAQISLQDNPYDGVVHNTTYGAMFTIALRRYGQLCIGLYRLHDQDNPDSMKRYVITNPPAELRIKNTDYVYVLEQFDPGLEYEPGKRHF
Method: as §2
FIGS. 14A-1, 14A-2, and 14B. LS10 prevents the potentiation of BK channels by acute ethanol exposure. SLO-1 channels expressed in oocytes cells were recorded in inside-out patches before. Intracellular calcium held at 5 μM. FIGS. 14A-1 and 14A-2: representative three second traces at 100 mV before (upper traces) and after (lower traces) bath application of 50 mM ethanol. […] FIG. 14B: mean Po change in response to ethanol for control recordings (open bars) and in the presence of LS10 (shaded bars). Paired Student's t-tests compared the Po before and after ethanol, *p<0.05, N=5.

Molecule: CC(C)[C@@H]1NC(=O)CNC(=O)[C@H](CCCNC(=N)N)NC(=O)[C@H](C)NC(=O)[C@@H](N)CSSC[C@@H](C(=O)O)NC(=O)[C@H](C(C)C)NC(=O)[C@H](CCCNC(=N)N)NC(=O)[C@H](Cc2ccc(O)cc2)NC1=O [LS1, CARGVYRVC] (H-CARGVYRVC-OH; disulfide 1-9; N-terminus and C-terminus assumed)
- crossing of the blood-brain barrier [1]: able to cross the blood-brain barrier

Molecule: CC(C)C[C@@H]1NC(=O)CNC(=O)[C@H](CCCNC(=N)N)NC(=O)[C@H](CCCNC(=N)N)NC(=O)[C@@H](N)CSSC[C@@H](C(=O)O)NC(=O)[C@H](C(C)C)NC(=O)[C@H](CCC(N)=O)NC(=O)[C@H](C(C)C)NC1=O [LS3, CRRGLVQVC] (H-CRRGLVQVC-OH; disulfide 1-9; N-terminus and C-terminus assumed)
- crossing of the blood-brain barrier [1]: can cross the blood-brain barrier
- IC50 ([2]; suppression of channel openings): low hundreds
- anti-BK channel activity in smooth muscle (smooth muscle): does not show typical anti-BK channel activity in smooth muscle

Molecule: CC(C)(O)[C@H]1O[C@H]2CC[C@@]3(C)[C@@](O)(CC[C@H]4Cc5c([nH]c6ccccc56)[C@@]43C)C2=CC1=O [paxilline]
- reduction in sound driven activity [3]: 87%

Molecule: CAVGRLAVC (pskan10/LS10 peptide)
- open dwell times / mean open times ([2]; 500 nM peptide, single channels, intracellular calcium 750 nM, each holding voltage): shortens open dwell times
- closed dwell times ([2]; 500 nM peptide, three-component exponential fits, intracellular calcium 750 nM): Half of the recordings showed a lengthening in closed times
- mean open times ([2]; 500 nM, 60 mV): reduce mean open times
- change in probability of opening (Po) ([2]; 500 nM, 100 mV, intracellular calcium 750 nM): little change in the probability of opening
- change in probability of opening (Po) [4]: little change in the probability of opening
- change in probability of opening (Po) (worm BK channel (SLO-1); 500 nM): significant reduction in the probability of opening
- potentiation of the probability of opening (Po) by ethanol (worm BK channel (SLO-1); 50 mM ethanol, 500 nM peptide): blocked

Molecule: reduced form of LS3 (linear): the reduced form of LS3 (linear), without the disulfide bridge (CRRGLVQVC; cyclised or stapled)
- post-peptide Po relative to the starting Po ([2]; 500 nM, linear vs cyclic form): did not alter Po
